Abundance fitness data for 38 variants are collected here from the Human Domainome abundance scans (Beltran et al. 2025).

± gives the uncertainty stated by the source.

Sequences and labels used below:
B1: SAM and SH3 domain-containing protein 1, residues 630 to 700; numbered along this chain, O94885 (parent)
chain: GRPPQPKSVEDLLDRINLKEHMPTFLFNGYEDLDTFKLLEEEDLDELNIRDPEHRAVLLTAVELLQEYDSN

Variants of B1 are the subject of the data set. Kind of data set: abundance fitness (aPCA) (normalised: wild type 0, dead -1); higher = more abundant; growth selection in yeast, the domain comes from the species named. Particulars: Homo sapiens.
GRPPQPKSVEDLLDRINLKEHMPTFLFNGYLDLDTFKLLEEEDLDELNIRDPEHRAVLLTAVELLQEYDSN: the abundance fitness was -0.37 ± 0.036.

Turning to GRPPQPKSVEDLLDRINLKEHMPTFLFNGYGDLDTFKLLEEEDLDELNIRDPEHRAVLLTAVELLQEYDSN, the abundance fitness came to 0.313 ± 0.035.

In the case of GRPPQPKSVEDLLDRINLKEHMPTFLFNGYDDLDTFKLLEEEDLDELNIRDPEHRAVLLTAVELLQEYDSN, the abundance fitness turned out to be 0.129 ± 0.042.

Take GRPPQPKSVEDLLDRINLKEHMPTFLFNGYVDLDTFKLLEEEDLDELNIRDPEHRAVLLTAVELLQEYDSN: the abundance fitness was -0.003 ± 0.035.

For the variant GRPPQPKSVEDLLDRINLKEHMPTFLFNGYKDLDTFKLLEEEDLDELNIRDPEHRAVLLTAVELLQEYDSN, the abundance fitness stood at 0.124 ± 0.045.

On to GRPPQPKSVEDLLDRINLKEHMPTFLFNGYIDLDTFKLLEEEDLDELNIRDPEHRAVLLTAVELLQEYDSN, for which the abundance fitness was -0.288 ± 0.049.

As to GRPPQPKSVEDLLDRINLKEHMPTFLFNGYSDLDTFKLLEEEDLDELNIRDPEHRAVLLTAVELLQEYDSN, the abundance fitness amounted to 0.196 ± 0.032.

With GRPPQPKSVEDLLDRINLKEHMPTFLFNGYRDLDTFKLLEEEDLDELNIRDPEHRAVLLTAVELLQEYDSN, the abundance fitness was 0.127 ± 0.032.

In the case of GRPPQPKSVEDLLDRINLKEHMPTFLFNGYYDLDTFKLLEEEDLDELNIRDPEHRAVLLTAVELLQEYDSN, the abundance fitness is -0.124 ± 0.042.

For the variant GRPPQPKSVEDLLDRINLKEHMPTFLFNGYADLDTFKLLEEEDLDELNIRDPEHRAVLLTAVELLQEYDSN, the abundance fitness was found to be 0.207 ± 0.033.

On to GRPPQPKSVEDLLDRINLKEHMPTFLFNGYQDLDTFKLLEEEDLDELNIRDPEHRAVLLTAVELLQEYDSN, for which the abundance fitness is 0.029 ± 0.044.

Take GRPPQPKSVEDLLDRINLKEHMPTFLFNGYMDLDTFKLLEEEDLDELNIRDPEHRAVLLTAVELLQEYDSN: the abundance fitness is -0.158 ± 0.046.

Turning to GRPPQPKSVEDLLDRINLKEHMPTFLFNGYHDLDTFKLLEEEDLDELNIRDPEHRAVLLTAVELLQEYDSN, the abundance fitness was found to be 0.195 ± 0.038.

For the variant GRPPQPKSVEDLLDRINLKEHMPTFLFNGYPDLDTFKLLEEEDLDELNIRDPEHRAVLLTAVELLQEYDSN, the abundance fitness is -0.15 ± 0.039.

For the variant GRPPQPKSVEDLLDRINLKEHMPTFLFNGYNDLDTFKLLEEEDLDELNIRDPEHRAVLLTAVELLQEYDSN, the abundance fitness was 0.171 ± 0.04.

For GRPPQPKSVEDLLDRINLKEHMPTFLFNGYWDLDTFKLLEEEDLDELNIRDPEHRAVLLTAVELLQEYDSN, the abundance fitness was -0.248 ± 0.049.

For the variant GRPPQPKSVEDLLDRINLKEHMPTFLFNGYTDLDTFKLLEEEDLDELNIRDPEHRAVLLTAVELLQEYDSN, the abundance fitness was found to be 0.251 ± 0.033.

For GRPPQPKSVEDLLDRINLKEHMPTFLFNGYEDDDTFKLLEEEDLDELNIRDPEHRAVLLTAVELLQEYDSN, the abundance fitness was -0.76 ± 0.092.

For GRPPQPKSVEDLLDRINLKEHMPTFLFNGYEDCDTFKLLEEEDLDELNIRDPEHRAVLLTAVELLQEYDSN, the abundance fitness was -0.881 ± 0.11.

As for GRPPQPKSVEDLLDRINLKEHMPTFLFNGYEDADTFKLLEEEDLDELNIRDPEHRAVLLTAVELLQEYDSN, the abundance fitness was -0.883 ± 0.087.

As for GRPPQPKSVEDLLDRINLKEHMPTFLFNGYEGLDTFKLLEEEDLDELNIRDPEHRAVLLTAVELLQEYDSN, the abundance fitness is -0.585 ± 0.055.

Consider GRPPQPKSVEDLLDRINLKEHMPTFLFNGYEELDTFKLLEEEDLDELNIRDPEHRAVLLTAVELLQEYDSN, for which the abundance fitness was -0.275 ± 0.055.

In the case of GRPPQPKSVEDLLDRINLKEHMPTFLFNGYEMLDTFKLLEEEDLDELNIRDPEHRAVLLTAVELLQEYDSN, the abundance fitness is -0.682 ± 0.06.

With GRPPQPKSVEDLLDRINLKEHMPTFLFNGYEQLDTFKLLEEEDLDELNIRDPEHRAVLLTAVELLQEYDSN, the abundance fitness is -0.382 ± 0.047.

As for GRPPQPKSVEDLLDRINLKEHMPTFLFNGYEHLDTFKLLEEEDLDELNIRDPEHRAVLLTAVELLQEYDSN, the abundance fitness is -0.187 ± 0.048.

Consider GRPPQPKSVEDLLDRINLKEHMPTFLFNGYESLDTFKLLEEEDLDELNIRDPEHRAVLLTAVELLQEYDSN, for which the abundance fitness was determined as 0.094 ± 0.033.

As to GRPPQPKSVEDLLDRINLKEHMPTFLFNGYENLDTFKLLEEEDLDELNIRDPEHRAVLLTAVELLQEYDSN, the abundance fitness is -0.085 ± 0.049.

Turning to GRPPQPKSVEDLLDRINLKEHMPTFLFNGYEALDTFKLLEEEDLDELNIRDPEHRAVLLTAVELLQEYDSN, the abundance fitness was -0.579 ± 0.056.

On to GRPPQPKSVEDLLDRINLKEHMPTFLFNGYECLDTFKLLEEEDLDELNIRDPEHRAVLLTAVELLQEYDSN, for which the abundance fitness is -0.292 ± 0.055.

As to GRPPQPKSVEDLLDRINLKEHMPTFLFNGYEILDTFKLLEEEDLDELNIRDPEHRAVLLTAVELLQEYDSN, the abundance fitness was -0.568 ± 0.079.

For the variant GRPPQPKSVEDLLDRINLKEHMPTFLFNGYELLDTFKLLEEEDLDELNIRDPEHRAVLLTAVELLQEYDSN, the abundance fitness was -0.767 ± 0.046.

As for GRPPQPKSVEDLLDRINLKEHMPTFLFNGYETLDTFKLLEEEDLDELNIRDPEHRAVLLTAVELLQEYDSN, the abundance fitness is 0.172 ± 0.036.

GRPPQPKSVEDLLDRINLKEHMPTFLFNGYEYLDTFKLLEEEDLDELNIRDPEHRAVLLTAVELLQEYDSN: the abundance fitness was -0.776 ± 0.07.

With GRPPQPKSVEDLLDRINLKEHMPTFLFNGYEKLDTFKLLEEEDLDELNIRDPEHRAVLLTAVELLQEYDSN, the abundance fitness is -0.197 ± 0.05.

On to GRPPQPKSVEDLLDRINLKEHMPTFLFNGYERLDTFKLLEEEDLDELNIRDPEHRAVLLTAVELLQEYDSN, for which the abundance fitness was -0.268 ± 0.038.

Turning to GRPPQPKSVEDLLDRINLKEHMPTFLFNGYEWLDTFKLLEEEDLDELNIRDPEHRAVLLTAVELLQEYDSN, the abundance fitness is -0.75 ± 0.069.

Turning to GRPPQPKSVEDLLDRINLKEHMPTFLFNGYEVLDTFKLLEEEDLDELNIRDPEHRAVLLTAVELLQEYDSN, the abundance fitness is -0.788 ± 0.06.

For the variant GRPPQPKSVEDLLDRINLKEHMPTFLFNGYEFLDTFKLLEEEDLDELNIRDPEHRAVLLTAVELLQEYDSN, the abundance fitness was -0.803 ± 0.092.
